{"source": "patent US9777044B2", "about": "“GLUT-1 as a receptor for HTLV envelopes and its uses” (CENTRE NATIONAL DE LA RECHERCHE SCIENTIFIQUE (CNRS), priority 2003, dated 2017)", "molecules": {"B1": {"name": "H1RBD: first 215 residues of HTLV-1 SU fused to a C-terminal rabbit IgG Fc tag (rFc) (protein)", "chain": "DYSPSCCTLTIGVSSYHSKPCNPAQPVCSWTLDLLALSADQALQPPCPNLVSYSSYHATYSLYLFPHWIKKPNRNGGGYYSASYSDPCSLKCPYLGCQSWTCPYTGAVSSPYWKFQQDVNFTQEVSRLNINLHFSKCGFPFSLLVDAPGYDPIWFLNTEPSQLPPTAPPLLPHSNLDHILEPSIPWKSKLLTLVQVDVPRDCGCKPCICTVPEVSSVFIFPPKPKDVLTITLTPKVTCVVVDISKDDPEVQFSWFVDDVEVHTAQTQPREEQFNSTFRSVSELPIMHQDWLNGKEFKCRVNSAAFPAPIEKTISKTKGRPKAPQVYTIPPPKEQMAKDKVSLTCMITDFFPEDITVEWQWNGQPAENYKNTQPIMDTDGSYFVYSKLNVQKSNWEAGNTFTCSVLHEGLHNHHTEKSLSHSPGK"}}, "key": {"[1]": {"test_system": "293T cells", "assay": "Hexose uptake assay: 2-deoxyglucose", "format": "cell-based, human", "conditions": "transfected 293T cells vs control cells", "procedure": "Assay of hexose uptake. 2-deoxy-D[1-^3H]glucose, D[U-^14C]fructose and 3-O-[^14C]methyl-D-glucose were obtained from Amersham. Hexose uptake assay were adapted from Harrison et al. 1991). After transfection, approximately 250,000 were seeded/well in 24-well plates. […] Uptake was initiated by adding labeled hexoses to a final concentration of 0.1 mM (2 μCi/ml for 2-2-deoxy-D[1-^3H]glucose and 0.2 μCi/ml for D[U-^14C]fructose and 3-O-[^14C]methyl-D-glucose) and cells were incubated for 5′ additional minutes. Cells were then resuspended in 500 μl cold serum-free glucose-free DMEM, wash one time in serum-free glucose-free DMEM, and solubilized in 400 μl of 0.1% SDS. 3 μl was used for Bradford normalization, while the rest was used for detection of either ^3H or ^14C by liquid scintillation in a Beckman counter."}, "[2]": {"test_system": "MCT1 and CD147", "assay": "RBD binding upon overexpression of MCT1 and CD147", "set-up": "species or system human", "excerpt": "Extracellular lactate accumulates in cell cultures following its transport across cellular membranes by the MCT1 monocarboxylate transporter [Garcia, 1994]. Because HTLV and MLV share a common organization of the extracellular envelope [Kim, 2000] and the receptors for MLV Env are multispanning metabolite transporters [Overbaugh, 2001], we assessed whether the HTLV RBD bound to MCT1. Moreover, similar to our previous data concerning expression of the HTLV receptor on T cells [Manel, 2003], expression of MCT1 chaperone CD147 [Kirk, 2000] increases during T cell activation [Kasinrerk, 1992].\nExpression vectors. Full length envelope expression vectors for HTLV-1 (pCEL/2[Denesvre, 1995]) and Friend ecotropic MLV (pCEL/F [Denesvre, 1995]), have been previously described. For the HTLV-2 envelope, a fragment from pHTE2 [Rosenberg, 1998] encompassing the tax, rex and env genes and the 3′ LTR was inserted in the pCSI [Battini, 1999] vector (pCSIX.H2). […]\nBinding assays. […] Binding was analyzed on a FACSCalibur (Becton Dickinson) and data analysis was performed using CellQuest (Becton Dickinson) and WinMDI (Scripps) softwares."}}, "data": [{"molecule": "B1", "values": [{"measurement": "decrease in 2-deoxyglucose uptake", "setting": "[1]", "result": "approximately 4 fold"}, {"measurement": "H1RBD binding upon separate and combined overexpression of MCT1 and CD147", "setting": "[2]", "result": "did not result in increased H1RBD binding"}]}]}
